# According to US9580716B2, “Site-specific incorporation of phosphoserine into proteins in Escherichia coli” (Yale University, priority 2010, dated 2017):
# B1: tRNA^Sep: amber suppressor tRNA derived from Mj tRNA^Cys with C20U change and two anticodon mutations; SEQ ID NO:41 (nucleic acid)
# chain: GCCGGGGTAGTCTAGGGGTTAGGCAGCGGACTGCAGATCCGCCTTACGTGGGTTCAAATCCCACCCCCGGCT
# modifications: expressed or natural sequence
# Key:
# E. coli Top10ΔserB = assay: CAT (UAG at position 112) suppression assay, chloramphenicol resistance; assay type: cell-based, Escherichia coli
# Description: The suppressor tRNA^Sep was coexpressed with the indicated enzymes in E. coli Top10ΔserB. Selection was carried out on LB agar plates containing 2 mM Sep and various concentrations of chloramphenicol.
# pCAT112TAG-SepT was created from pACYC 184. The gene encoding chloramphenicol acetyltransferae (CAT) was modified by quickchange mutagenesis to introduce an amber stop codon at position Asp112 (Wang L, et al. Science 292:498 (2001)). The resulting plasmid was PCR amplified using primers PBLAF (5′-TGCGCAATGCGGCCGCCCGTAGCGCCGATGGTAGTGT-3′, SEQ ID NO:9) and PBLAR (5′-ACACGGAGATCTCTAAAGTATATATGAGTAAAC-3′, SEQ ID NO: 10) and ligated with a PCR product containing a tRNA^Sep expression cassette from pSepT, created with primers TSEPF (5′-GCATGCGCCGCCAGCTGTTGCCCGTCTCGC-3′, SEQ ID NO:17) and TSEPR (5′-GCATAGATCTTCAGCTGGCGAAAGGGGGATG-3′, SEQ ID NO:18).
# Efficient and selective addition of Sep to the E. coli genetic repertoire requires exclusive interaction of SepRS with tRNA^Sep for Sep-tRNA^Sep formation without interfering in the host translation system as well as a sufficient intracellular concentration of Sep. As E. coli has a Sep-compatible transporter (Wanner, B L. FEMS Microbiol Lett 79, 133 (1992)), Sep (2 mM) was added to the growth medium, and the endogenous serB gene encoding phosphoserine phosphatase was deleted in the E. coli test strain. To assess whether the Mj tRNA^Sep/Mmp SepRS pair is functional and orthogonal in E. coli, a suppression assay was performed that employed a chloramphenicol acetyltransferase (CAT) gene with a UAG stop codon at the permissive position 112 (wild-type amino acid: Asp) to produce chloramphenicol (Cm) acetyltransferase; then cell survival was measured in the presence of Sep and varying amounts of Cm. The different IC50 values (FIG. 2) relate to suppression efficiency (i.e., amount of CAT made dependent on the various transformed genes). When only tRNA^Sep is expressed (FIG. 2, second bar) Cm resistance increases about 3.3-fold over background (FIG. 2, first bar). Thus, tRNA^Sep can be aminoacylated to a certain degree by an unknown E. coli aminoacyl-tRNA synthetase (Gln is being incorporated at the amber stop codon). […] This may indicate that SepRS can out-compete any endogenous aminoacyl-tRNA synthetase and form Sep-tRNAS^Sep; however, this aminoacyl-tRNA is not delivered to the ribosome or not accommodated on the ribosome. […] Co-expression of tRNA^Sep, SepRS and SepCysS should result in formation of Sep-tRNA^Sep and subsequent SepCysS-mediated conversion to Cys-tRNA^Sep (A. Sauerwald et al., Science 307, 1969 (2005)). Indeed, a 2.3-fold increase in Cm resistance is observed (FIG. 2, sixth bar). This further supports the notion that while Sep-tRNA^Sep is synthesized, it cannot be used properly by the E. coli protein biosynthesis machinery.
# Resulting pKD-SepRS-EFTu plasmids were transformed into E. coli Top10ΔserB containing pCAT112-SepT for a third round of selection which was carried out under the same conditions as the first. This time, individual colonies were isolated from agar plates and clones were tested for their ability to grow on Cm over a concentration range from […]. Total plasmid was purified from isolates showing strong Cm resistance, and pKD-SepRS-EFTu plasmids were subjected to sequencing. […]
# [^35S]Cys-tRNA^Cys = EF-Tu hydrolysis protection assay with Cys-tRNA^Cys; assay type: binding, Methanocaldococcus jannaschii; settings: pH 8.2; FIG. 5A
# Description: FIGS. 5A and 5B are graphs showing EF-Tu protects Cys-tRNA^Cys(FIG. 5A) but not Sep-tRNA^Cys (FIG. 5B) from deacylation. Hydrolysis of M. jannaschii [^35S]Cys-tRNA^Cys or [^14C]Sep-tRNA^Cys was determined at pH 8.2 and room temperature in the presence or absence of EF-Tu.
# Given that EF-Tu is a component of quality control in protein synthesis (LaRiviere, FJ., et al. Science 294, 165 (2001)), it is highly plausible that Sep-tRNA^Sep may be rejected by EF-Tu in order not to interfere with the complicated cellular mechanism of phosphoprotein production. […] This assumption was tested in EF-Tu mediated Sep-tRNA hydrolysis protection experiments (J. Ling et al., Proc Natl Acad Sci USA 104, 15299 (2007)), and incubated recombinant E. coli EF-Tu with the Mj tRNA^Cys in vitro transcript either acylated with [^35S]Cys or [^14C]Sep at pH 8.2. […]
# (§1) To assay hydrolysis protection of acylated tRNA^Cys by EF-Tu, […] tRNA^Cys in vitro transcripts acylated with [^14C]Sep or [^35S]Cys, respectively, were phenol/chlorophorm extracted, and the aqueous phase was passed over Sephadex® G25 Microspin columns (GE Healthcare) equilibrated with water. […] Hydrolysis of 2 μM [^14C]Sep-tRNA^Cys was then monitored at 25° C. in the presence of 40 μM EF-Tu (wt), EF-Sep, or BSA, respectively. […] Filters were washed with 5% trichloroacetic acid, dried, and radioactivity was measured by liquid scintillation counting.
# [^14C]Sep-tRNA^Cys = EF-Tu hydrolysis protection assay with Sep-tRNA^Cys; assay type: binding, Methanocaldococcus jannaschii; settings: pH 8.2; 40 μM factor, 2 μM [^14C]Sep-tRNA^Cys, 25° C.; FIG. 3 and FIG. 5B
# Description: Protection of Sep-tRNA^Cys by EF-Tu was assayed as described earlier with slight modifications (Ling J, et al. RNA. 2007 November; 13(11):1881-6.). Briefly, EF-Tu or EF-Sep (both purified as maltose binding protein fusion proteins) were activated for 20 min. at 37° C. in buffer containing 100 mM Tris-HCl (pH 8.2), 120 mM NH4Cl, 7 mM MgCl2, 5 mM DTT, 5 mM phosphoenolpyruvate, 1.5 mM GTP, and 0.12 μg/μl pyruvate kinase. Hydrolysis of 2 μM [^14C]Sep-tRNA^Cys was then monitored at 25° C. in the presence of 40 μM EF-Tu (wt), EF-Sep, or BSA, respectively. Aliquots were taken from the reaction mix at indicated time points and spotted on 3MM filter discs presoaked with 10% trichloroacetic acid. Filters were washed with 5% trichloroacetic acid, dried, and radioactivity was measured by liquid scintillation counting.
# as §1
# Mmp SepRS = assay: In vitro aminoacylation of tRNA with Sep by Mmp SepRS; assay type: biochemical, Methanococcus maripaludis
# Description: In vitro transcript of Methanocaldococcus jannaschii tRNA^Cys was prepared and acylated with [^14C]Sep (55 mCi/mmol) using recombinant Methanococcus maripaludis SepRS as described previously by Hohn M J, et al. Proc Natl Acad Sci USA. 2006 Nov. 28; 103(48):18095-100. Sep-tRNA^Cys was phenol/chlorophorm extracted, and the aqueous phase was passed over Sephadex G25 Microspin columns (GE Healthcare) equilibrated with water.
# Total tRNA from E. coli Top10 or from E. coli Top10 complemented with pCysT or pSepT, respectively, was purified by standard procedures and acylated with [^14C]Sep by M. maripaludis SepRS as described previously. […] M. jannaschii tRNA^Cys contains m^1G37 when isolated from M. jannaschii. Since the E. coli methylase TrmD is known to methylate G37 of archaeal tRNA^Pro, it is believed that the in vivo expressed tRNA^Sep also carries the m^1G37 modification. In vitro transcript of M. jannaschii tRNA^Cys was prepared and acylated with [^14C]Sep or [^35S]Cys using recombinant M. maripaludis SepRS or CysRS. M. jannaschii tRNA^Cys transcript was chosen for these experiments because of the poor folding properties of in vitro transcribed M. maripaludis tRNA^Cys (Hohn, M. J. Proc Natl Acad Sci USA 103, 18095 (2006)).
# Sequence of Mmp SepRS (as listed by the source): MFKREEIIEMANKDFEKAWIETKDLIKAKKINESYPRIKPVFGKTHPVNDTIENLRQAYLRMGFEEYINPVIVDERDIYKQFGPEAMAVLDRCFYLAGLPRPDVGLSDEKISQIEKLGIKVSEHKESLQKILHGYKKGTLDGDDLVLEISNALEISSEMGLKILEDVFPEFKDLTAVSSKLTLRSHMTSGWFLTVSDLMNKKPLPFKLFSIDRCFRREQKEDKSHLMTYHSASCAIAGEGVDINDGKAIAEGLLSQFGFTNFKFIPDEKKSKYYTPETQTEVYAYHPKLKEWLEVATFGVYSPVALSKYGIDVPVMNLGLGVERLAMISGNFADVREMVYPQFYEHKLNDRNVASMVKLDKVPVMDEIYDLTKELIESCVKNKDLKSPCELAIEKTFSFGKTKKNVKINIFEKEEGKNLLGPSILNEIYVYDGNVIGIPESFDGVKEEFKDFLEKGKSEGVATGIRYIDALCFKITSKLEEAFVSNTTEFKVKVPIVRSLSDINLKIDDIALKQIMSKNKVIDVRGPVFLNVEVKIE
Molecule,"Cm resistance (E. coli Top10ΔserB; tRNA^Sep and SepRS plus additional EF-Tu, FIG. 2 fifth bar)",protection of Cys-tRNA^Cys from deacylation ([^35S]Cys-tRNA^Cys),protection of Sep-tRNA^Cys from deacylation ([^14C]Sep-tRNA^Cys),"activity of tRNA^Sep when compared to tRNA^Cys (Mmp SepRS; in vitro aminoacylation by Mmp SepRS, tRNA overexpressed in E. coli, effect of the anticodon change, FIG. 1C)","improvement of aminoacylation by SepRS through the C20U change (Mmp SepRS; tRNA^Sep derived from Mj tRNA^Cys, no effect on CysRS recognition)","increase in Cm resistance (E. coli Top10ΔserB; co-expression of tRNA^Sep and Mmp CysRS, FIG. 2 eight bar)","increase in Cm resistance (E. coli Top10ΔserB; co-expression of tRNA^Sep, SepRS and SepCysS, FIG. 2 sixth bar)","increase in Cm resistance over background (E. coli Top10ΔserB; only tRNA^Sep expressed, 2 mM Sep, FIG. 2 second bar)","Cm resistance (E. coli Top10ΔserB; simultaneous expression of tRNA^Sep and SepRS, FIG. 2 third bar)"
EF-Tu: wild type recombinant E. coli elongation factor Tu,does not improve the result,protected,significantly deacylated irrespective of the presence of EF-Tu,,,,,,
B1,,,,about 40%,2.5 fold,12.3 fold,2.3 fold,about 3.3 fold,does not provide Cm resistance
